Assay results as given in the nanobody polyreactivity screen of Harvey et al. (2022).

Test: yeast display, Sf9 membrane polyspecificity reagent, FACS + sequencing; frameworks hold sequencing errors
How it was run: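 Polyreactivity labels are assigned by the sorting gate from which each nanobody was recovered. The gates were low and high (top ~1%), set on anti-HA fluorescence for expression and streptavidin fluorescence for reagent binding. Before sorting, galactose-induced (36–48 hours) yeast display cells were stained for 1 hour at 4 °C with 10% biotinylated, detergent-solubilized Sf9 membrane reagent.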

| Sequence | polyreactivity (PSR sort gate) |
| --- | --- |
| QVQLVESGGGLVQAGGSLRLSCAASGIIFPFYAMGWYRQAPGKERELVAAITSGGDTYYADSVKGRFTISRDNAKNTVYLQMNSLKPEDTAVYYCAAVYRRQYGYWGQGTQVTVSS | high polyreactivity |
| QVQLVESGGGLVQAGGSLRLSCAASGRTFYYYAMGWYRQPPGKERELVAAIRWSTGSTYYADSVKGRFTISRVNAQITVYLQMNSLKPEDTAVYYCAADTWYIQWGYYWGQGTQVTVSS | low polyreactivity |
| QVQLVDSGGGLVQAGGSLSLSCAASGFTFVRYAMGWYRQAPGKERELVAAISGRGGSTYFADSVKGRFTISRDYAKNTVYLQMNSLKPDDTAVYYCATDYSRTFDYWGQGTQVTVSS | high polyreactivity |
| QVQLVESWGGLVQAGGSLRLSCAASGYTFSAYAMGWYRQAPGKERELVAAISWSGASTSYADSVKGRFTISRDNAKNTVYLQMNSLKPEDTAVYYCAARRLHYQFKYYSWGQGTQVTVSS | high polyreactivity |
| QVQLVESGGGLVQAGGSLRLSCAGSGSIFSIYAMGWYRQAPGKERELVAAIRYDGGSTYYADSVKGRFTISRDNAKNTVYLQMNSLKPEDTAVYYCAAKVYFRRRGLHPYDYWGQGTQVNVSS | low polyreactivity |
| QVQLVESGGGLVQAGGSLRLSCAASGYTFSAYAMGWYRQAPGKERELVAVINRSGVRTYYADSVKGRFTISRDNAKNTVYLQMNSLKPEDTAVYYCAADYRNTVLEMDYWGQGTQVTVSS | high polyreactivity |
| QVQLVESGGGLVQAGGSLRLSCAASGSTFAFYAMGWYRQAPGTERELVAAIRSGGSTNYADSVKGRFTISRDNAKNTVYLQMNSLKPEDTAVYYCAARESDPGSHSVYREDDYWGQGTQVTVSS | low polyreactivity |
| QVQLVESGGGLVQAGGSLRLSCAASGRIFGPYAMGWYRQAPGKDRELVASISYSGGSTYYADSVKGRFTISRDKAKNTVYLQMNSLKPEDTAVYYCDKAGYWRGYNYWGQGTQVTVSS | low polyreactivity |
| QVQLVESGGGLVQAGGSLRLSCAASGRTFRLNAMGWYRQAPGKERELVAAITRGGRTNYADSVKGRFTISRDNAKNTVYLQMNSLKPEDTAVYYCAARYVERHTDYYYWGQGTQVTVSS | low polyreactivity |
| QVQLVESGGGLVQAGGSLRLSCAASGFTFPRYAMGWYRQAPGKVRQLVAAISYRGGRTYYADSVKWRFTISRDNAKNTVFLQMNSLKPEDTAVYYCAADKTPSARYDYWGQGTQVTVSS | high polyreactivity |
| QVQLVESGGGLVQAGGSLRLSSAASGRTFYWYAMGWYRQAPGKQRELVASISIDGRTYYADSVKGRFTISRDNAKNNVYLQMNSLKPEDTAVYYCNVVRYYPYRPTTKRGGGYWGQGTQVSVSS | high polyreactivity |
| QVQLVESGGGIVQAGGSLRLSCAASGSIFRRNALGWYRQAPGKERELVAAISSIGSSTYYADSVKGRFTISRENAKNTVYFQMNSLKPEDTAVYYCAAVFYYATYSKKFEYWGQGTQVTVSS | high polyreactivity |
| QVQLVESGGGLVQAGGSLRLSCAASGRTFYSYAMGWYRQAPGKERELVASISSSGASTYYADSVKGRFTISRDNAKNTVYLQMNSLKPEDTAVYYCNAVWRTSFITIYGFDYWGQGTQVTVSS | high polyreactivity |
| QVQLVESGGGIVQARGSLRLTSAASGITFQYYTMGWYRQAPGKERELVAGISDSDGDTYYADSVKGRFTISRDNAKKTVFLQMNSLKPEDTALYYCAADGYAYYRATTRFDYWGQGTQVTLSS | high polyreactivity |
| QVQLVESGGGLVQAGGSLRLSCAASGSIFYQYAMGWYRQAPGKERELVAAISRSGGSTYYADSVKGRFTISRDNAKNTVYLQMISLKPEDTAVYYCAARAVRAAYDYWGLGTQVTVSS | low polyreactivity |
| QVQLVESGGGLVQAGGSLRLSCAASGSTFSDYAMGWYRQAPGKERELVAAISDSGSGTYYADSVKGRFTISRDNAKNTVYLQMNSLKPEDTAVYYCNTDPRFAMDWGQGTQVTVSS | low polyreactivity |
| QVQLVESGGGLVQAGGSLRLSCAASGNIFSSNAMGWYRQAPGKERELVAAISASGGNTYYSDSVKGRFTISRDNAKNTVYLQMNSLKPEDTAFYYCNAYRGGYLRRGYYYWGQGTQVTVSS | high polyreactivity |
| QVQLVESGGGLVQAGGSLRLSCAASGRILYSYAMGWYRQAPGKEREFVADIRRSGGSTYYADSVKGRFTISRDNAKNTVYLQMNSLKPEDTAVYYCAKSQSAKGGYDYWGQGTQVTVSS | high polyreactivity |
| QVQLVESGGGLVQAGGSLRLSCAASGSIFRYYAMGWYRQAPGKERELVAAISSRGGTTHYADSVKGRFTISRDNAKNTVYLQMNSLKPEDTAVYYCAADYYLATNPAPLAAGRGYWGQGTQVTVSS | high polyreactivity |
| QVQLVESGGGLVQAGGSLRLSCAASGSTFQHYAMGWYRQAPGKERELVAAITNTGGSTYYADSVKGRFTISRDNAKNTVDLQMNSLKPEDTAVYYCATVGRRYGYPGDYWGQGTQVTVSS | low polyreactivity |
| QVQLVESGGGLVQAGGSLRLSCAASGNTLASYAMGWYRQAPGKEREFVAAITNRSGSTYYADSVKGRFTISRDNAKNTVYLQMNSLKPEDTAVYYCAARYGRRSGQMGYWGQGTQVTVSS | high polyreactivity |
| QVQLVESGGGLVQAGGSLRLSCAASVFTFKINGMGWYRQAPGKEREFVATIRTSTGRTYYADSVKGRFTISRDNAKNTVYLQMNSLKPEDTAVYYCDTRVRQGNTHPNGKSDDYWGQGTQVTVSS | high polyreactivity |

| Sequence | polyreactivity (PSR sort gate) |
| --- | --- |
| QVQLVESGGGLVQAGGSLRLSCAASGLTFIGNAMGWYRQAPGKERELVAAITWSGTSTYYADSVKGRFTISRDNAKNTVYLQMNSLKPEDTAVYYCAAVLRRLGVSYYYWGQGTQVTVSS | high polyreactivity |
| QVQLVESGGGLVQAGGSLRLSSAASGITFRTNTMGWYRQAPGKERELVASISSGTRTNYADSVKGRFTISRDNAKNTVYLQMNSLKPEDTAVDYCAAGPPRNRYRNARFDYWGQGTQVTVSS | high polyreactivity |
| HVQLVESGGGLVQAGGSLRLSCAASGITFYDNVMGWYRQAAGKERELVAAITDSGGSTYYADSVKGRFTISRDNEKNTDYLQMNSLNPEDTAVYYCNAEVNAHWWWYIEDYWGQGTQVTVSS | low polyreactivity |
| QVQLVESGGGLVQAGGSLRLSCAASGFTFRWYTMVWYRQAPGKERELVAAITGSGCTTYYADSVKGRFTISRDNAKNTVYLQMNSLKPEDTAVYYCAARTATSSPSWYEYWGQGTQVTVSS | high polyreactivity |
| QVQLVESGGGLVQAGGSLRLSCAASGRIFLHYAMGWYRQAPGKERELVAAISRSGGSTYYADSVKGRFTISRDNAKNTVYLQMNSLKPEDTAVYYCAAAYPFKTTEGYFYWGQGTQVTVSS | high polyreactivity |
| QVQLVESGGGLVQAGGSLRLSCAASGFTFNRYAMGWYRQAPGQERELVAAISRSGGSTSYADSVKGRFTISRDNAKKTVYLPMHSLKPEDTAVYYCAADRVWYLYYDYNYWGQGTQVTVSS | high polyreactivity |
| QVQLVESGGGLVQAGGSLRLSCAASGNTFNGYTMGWYRQATGKERELVAVISSYGGRTNYADSVKGRFTISRDNAKITLYLQLNSLKTEVTAVYYCAARSSRLPHIYGYWGQGTQVTVSS | low polyreactivity |
| QVQLVESGGGLFQAGGSLRLSCAASGRTFKNNAMGWYRQAPGKERELVAAISSNGGSTYYADSVKGRFTISRDNAKNTVYLQMNSLKPEDTAVYYCAADRTIVEYYYWGQGTQVTVSS | high polyreactivity |
| QVQLVESGGGLVQAGGSLRLSCAASGIIFWLYTMGWYRQAPGKERELVAAITSGGSTYYADSVKGRFTISRDNAKNTVYLQMNSLKPEDTAVYDCAAVPRYRRWKYDYWGQGTQVTVSS | high polyreactivity |
| QVQLVESGGGLVQAGGSLRLSCAASGSTFTYYAMGWYRQAPGNEREFVASLTYRGGRTNYADSVKGRFTISRDNATNTVYLQMNRQKPEDTAVYYCAARQRWTYAYDYWGQGTQVTVSS | high polyreactivity |
| QDQLVESGGGLVQAGGSLRLSCAASGITFWYYAMGWYRQAPGKERELVAAISQSGGSTFYADSVKGRFTISRDNAKNTVYLQMNRLKPEVTAVYYCATGFFRYLAKFKTYRYDYWGQGTQVTVSS | high polyreactivity |
| QVQLVESGGGIVQAGGSLRLSCAASGLNFYWYAMGWYRQAPGKERELVAAITWSGGITYYADSVKGRFTISRDNANNTVYLQMNSLNPEDTAVYYCADDDDYGDVTYDYWGHGTQVTVSS | low polyreactivity |
| QVQLVESGGGLVQAGGSLRLSCAASGFTFGNYAMGWYRQAPGKERELVAAITRGGSTYYADSVKGRFTISRDNAKNTVYLQMKSLKPEDTAVYYCAARYFFWFRPSEYYYWGQGTQVTVSS | high polyreactivity |
| QVQLVESGGGLVQAGGSLRLSCAAYGFFYNAMGWYRPAPGKERELVAAISWSGASTYYADSVKGRFTISRDNAKNTVYLQMNSLKPEDTAVFYCNADPRLRQTRDYWGQGTQVSVSS | high polyreactivity |
| QVQLVESGGGLVQAGGSLRLSSAASGSTLGVYAMGWYRQAPGKERELVAGITRGGGRTYYADSVKGRFTISRENAKNTVYLQMNSLKPEDTAVYYCNKGQRGPYDYWGQGTQVTVSS | high polyreactivity |
| QVQLVESGGGLVQAGGSLRLSCAASGRIFRLYAMGWYRQAPGKERELVAAISKSGGSTYYADSVKGRFTISRDNAKYTVYLQMNSLNPEDTAVYYCAADYRTHGGYVGTFDYWGQGTQVTVSS | low polyreactivity |
| QVQLVESGGGLVQAGGSLRLSCAASGITFRLYAMGWYRQAPGKEREFVAAISRRGGSTYYADSVKGRFTISRDNAKNTVYLQMNSLKPEDTAVYYCARYGLVYALGYWGQGTQVTVSS | high polyreactivity |
| QVQLVESGGRLVQAGGSLRLRCAASGYIFVYNAKGWYRQAPGKARELVAAITDGGGSTYADSVKGRFTISRDNAKNTVYLQMNSLKPEDTAVYYCAARYSDTTWYVLYYYWVQGTQVTVSS | low polyreactivity |
| QVQLVESGGGIYKAGGSLRLSCAASGSIIKINTLGRYRQAPRKERELVAAISTRGGSTYYADSVKGRFTISRDNSKNTVYLQMNSLKPDDTAVYFCAARQFYKYYYWGQGTQVTVSS | high polyreactivity |
| QVQLVESGGGLVQAGGSLRLSCAASGSIFQAYVMGWYRQAPGKERELVATIDRRGGITYYADSVKGRFTISRDNAKNTVYLQMNSLKPEDTAVYYCATRTRLAQYSRGRYRYDYWGQGTQVTVSS | high polyreactivity |
| QVQLVESGGGLVQAGGSLRLSCAASGFTFDRYAMGWYRQAPGKERELVAAISRSGASTYYADSVKGRFTISRDNAKNTVYLQMNSLKPEDTAVDDCAAKQRTKGDYWGQGTQVTVSS | high polyreactivity |
